Data reported in patent US20200262913A1 (ZymoGenetics, published 2020).

T1: recombinant human IL-31 (as used in the NHK STAT3 phosphorylation assay of Example 5) (human, UniProt Q6EBC2 24-164, limits assumed)
T1 sequence: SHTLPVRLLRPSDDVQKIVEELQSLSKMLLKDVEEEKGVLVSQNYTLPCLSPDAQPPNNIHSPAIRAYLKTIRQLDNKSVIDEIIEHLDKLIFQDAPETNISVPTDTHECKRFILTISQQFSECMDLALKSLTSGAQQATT

T2: recombinant human IL-31 (hIL-31, BHK produced, A1277F, zcytor17lig CEE) (human, UniProt Q6EBC2 24-164)
T2 construct: also called recombinant hIL-31
T2 sequence: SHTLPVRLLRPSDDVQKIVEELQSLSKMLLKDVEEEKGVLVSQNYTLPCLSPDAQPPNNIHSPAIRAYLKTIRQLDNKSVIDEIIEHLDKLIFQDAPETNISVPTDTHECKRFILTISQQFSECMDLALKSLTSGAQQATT

B1: humanized 292.12.3.1 construct clone 8 (12VH5-gly + fback) (antibody, human IgG4, V domains shown)
VH: EVQLVQSGAEVKKPGESLKISCKASGYTLTRYWMQWVRQMPGKGLEWMGAIYPGDGDTRYSPSFQGQVTLTADKSISTAYLQWSSLKASDTAMYYCAFPDGYYAAPYGMDYWGQGTTVTVSS
VL: DIQMTQSPSSLSASVGDRVTITCRASGNIHNYLAWYQQKPGKVPKLLIYNAKTLADGVPSRFSGSRSETQYSLTISSLQPEDVATYYCQHFWSTPWTFGQGTKVEIKR
notes: also called 08
B2: humanized 292.12.3.1 construct clone 26 (12VH1-gly + HC(fback) + LC(F71Y)) (antibody, human IgG4, V domains shown)
VH: QVQLVQSGAEVKKPGASVKVSCKASGYTLTRYWMQWVRQAPGQGLEWMGAIYPGDGDTRYSQKFQGRVTLTADKSISTAYMELSSLRSEDTAVYYCAFPDGYYAAPYGMDYWGQGTLVTVSS
VL: DIQMTQSPSSLSASVGDRVTITCRASGNIHNYLAWYQQKPGKVPKLLIYNAKTLADGVPSRFSGSGSGTDYTLTISSLQPEDVATYYCQHFWSTPWTFGQGTKVEIKR
B3: humanized 292.12.3.1 construct clone 24 (12VH5-gly + HC(fback) + LC(G66R, G68E, F71Y)) (antibody, human IgG4, V domains shown)
VH: EVQLVQSGAEVKKPGESLKISCKASGYTLTRYWMQWVRQMPGKGLEWMGAIYPGDGDTRYSPSFQGQVTLTADKSISTAYLQWSSLKASDTAMYYCAFPDGYYAAPYGMDYWGQGTTVTVSS
VL: DIQMTQSPSSLSASVGDRVTITCRASGNIHNYLAWYQQKPGKVPKLLIYNAKTLADGVPSRFSGSRSETDYTLTISSLQPEDVATYYCQHFWSTPWTFGQGTKVEIKR
B4: humanized 292.12.3.1 construct clone 10 (12VH1-gly + LC(fback)) (antibody, human IgG4, V domains shown)
VH: QVQLVQSGAEVKKPGASVKVSCKASGYTFTRYWMQWVRQAPGQGLEWMGAIYPGDGDTRYSQKFQGRVTMTRDTSISTVYMELSSLRSEDTAVYYCARPDGYYAAPYGMDYWGQGTLVTVSS
VL: DIQMTQSPSSLSASVGDRVTITCRASGNIHNYLAWYQQKPGKVPKLLIYNAKTLADGVPSRFSGSRSETQYSLTISSLQPEDVATYYCQHFWSTPWTFGQGTKVEIKR
B5: humanized 292.12.3.1 construct clone 21 (12VH5-gly + HC(G24A, S28T, F29L, R94F) + LC(fback)) (antibody, human IgG4, V domains shown)
VH: EVQLVQSGAEVKKPGESLKISCKASGYTLTRYWMQWVRQMPGKGLEWMGAIYPGDGDTRYSPSFQGQVTISADKSISTAYLQWSSLKASDTAMYYCAFPDGYYAAPYGMDYWGQGTTVTVSS
VL: DIQMTQSPSSLSASVGDRVTITCRASGNIHNYLAWYQQKPGKVPKLLIYNAKTLADGVPSRFSGSRSETQYSLTISSLQPEDVATYYCQHFWSTPWTFGQGTKVEIKR
B6: humanized 292.12.3.1 construct clone 23 (12VH5-gly + HC(fback) + LC(D70Q, F71Y, T72S)) (antibody, human IgG4, V domains shown)
VH: EVQLVQSGAEVKKPGESLKISCKASGYTLTRYWMQWVRQMPGKGLEWMGAIYPGDGDTRYSPSFQGQVTLTADKSISTAYLQWSSLKASDTAMYYCAFPDGYYAAPYGMDYWGQGTTVTVSS
VL: DIQMTQSPSSLSASVGDRVTITCRASGNIHNYLAWYQQKPGKVPKLLIYNAKTLADGVPSRFSGSGSGTQYSLTISSLQPEDVATYYCQHFWSTPWTFGQGTKVEIKR
B7: humanized 292.12.3.1 construct clone 14 (12VH1-gly + HC(M69L, R71A, T73K, V78A, R94F) + LC(fback)) (antibody, human IgG4, V domains shown)
VH: QVQLVQSGAEVKKPGASVKVSCKASGYTFTRYWMQWVRQAPGQGLEWMGAIYPGDGDTRYSQKFQGRVTLTADKSISTAYMELSSLRSEDTAVYYCAFPDGYYAAPYGMDYWGQGTLVTVSS
VL: DIQMTQSPSSLSASVGDRVTITCRASGNIHNYLAWYQQKPGKVPKLLIYNAKTLADGVPSRFSGSRSETQYSLTISSLQPEDVATYYCQHFWSTPWTFGQGTKVEIKR
B8: humanized 292.12.3.1 construct clone 22 (12VH5-gly + HC(fback) + LC(G66R, G68E, D70Q, T72S)) (antibody, human IgG4, V domains shown)
VH: EVQLVQSGAEVKKPGESLKISCKASGYTLTRYWMQWVRQMPGKGLEWMGAIYPGDGDTRYSPSFQGQVTLTADKSISTAYLQWSSLKASDTAMYYCAFPDGYYAAPYGMDYWGQGTTVTVSS
VL: DIQMTQSPSSLSASVGDRVTITCRASGNIHNYLAWYQQKPGKVPKLLIYNAKTLADGVPSRFSGSRSETQFSLTISSLQPEDVATYYCQHFWSTPWTFGQGTKVEIKR
B9: humanized 292.12.3.1 construct clone 11 (12VH5-gly + HC(fback)) (antibody, human IgG4, V domains shown)
VH: EVQLVQSGAEVKKPGESLKISCKASGYTLTRYWMQWVRQMPGKGLEWMGAIYPGDGDTRYSPSFQGQVTLTADKSISTAYLQWSSLKASDTAMYYCAFPDGYYAAPYGMDYWGQGTTVTVSS
VL: DIQMTQSPSSLSASVGDRVTITCRASGNIHNYLAWYQQKPGKVPKLLIYNAKTLADGVPSRFSGSGSGTDFTLTISSLQPEDVATYYCQHFWSTPWTFGQGTKVEIKR
B10: humanized 292.12.3.1 construct clone 7 (12VH1-gly + fback) (antibody, human IgG4, V domains shown)
VH: QVQLVQSGAEVKKPGASVKVSCKASGYTLTRYWMQWVRQAPGQGLEWMGAIYPGDGDTRYSQKFQGRVTLTADKSISTAYMELSSLRSEDTAVYYCAFPDGYYAAPYGMDYWGQGTLVTVSS
VL: DIQMTQSPSSLSASVGDRVTITCRASGNIHNYLAWYQQKPGKVPKLLIYNAKTLADGVPSRFSGSRSETQYSLTISSLQPEDVATYYCQHFWSTPWTFGQGTKVEIKR
notes: also called 07

Tests used:
[1] = target: T1, recombinant human IL-31 (as used in the …); assay: cell-based or functional assay
[2] = target: T2, recombinant human IL-31 (hIL-31, BHK …); assay: SPR (Biacore), mAb amine-coupled to CM5 chip, hIL-31 injected
Description: (§1) The purified monoclonal antibodies were immobilized in individual flow cells on a CM5 type sensor chip. Immobilizations were performed using a standard amine coupling procedure, aiming for an immobilization level of 500 Resonance Units (RU). The antibodies were diluted to 1-5 ug/ml in 10 mM NaAc pH 4.5.
(§2) HPS-EP pH 7.4 (10 mM HEPES, 150 mM NaCl, 3 mM EDTA and 0.005% Polysorbat P20) was used as running buffer, and diluents for the recombinant hIL-31 (hIL-31, BHK produced, A1277F, zcytor17lig CEE). The hIL-31 was tested in a 3-fold dilution series from 333.3 nM to 1.4 nM. Association (injection) was 4 min., followed by a 20 min. dissociation (wash) period. Flow rate was 50 ul/min. Experiments were performed at 25OC. Regeneration of the surface was accomplished by injection of 30 sec. pulse of 10 mM Glycin-HCl pH 1.8 or 1M formic acid, at a 30 ul/min flow rate. Detection in all flow cells simultaneously. Flow cell #1 contained no immobilized antibody, and was used for subtraction of background and bulk.
(§3) The kinetic parameters were calculated by global fitting of the data using a 1:1 langmuir binding model. Data was inspected for mass-transport limitations prior to calculation of the kinetic parameters. In some experiments the Rmax was fitted locally, and the RI constant at 0.

[3] = target: recombinant human IL-31 (C108S), produced in E. coli by ZymoGenetics, MW 18 kDa (human), Q6EBC2; assay: cell-based or functional assay
[4] = target: T2, recombinant human IL-31 (hIL-31, BHK …); assay: SPR (Biacore), against parent 292.12.3.1
Description: as §1, §2, §3

| Binder | IC50, IL-31-induced STAT3 phosphorylation in NHK, Exp 4 [1] [nM] | IC50, IL-31-induced STAT3 phosphorylation in NHK, Exp 10 [1] [nM] | Kd [2] [nM] | koff [2] [s⁻¹] | kon [2] [M⁻¹ s⁻¹] | Average Fold loss in potency relative to 292.12.3.1, BAF-3(hIL-31R) proliferation assay [3] [fold] | Average Potency (IC50), inhibition of hIL-31-induced proliferation of BAF-3(hIL-31R) cells [3] [nM] | IC50, IL-31-induced STAT3 phosphorylation in NHK, Exp 8 [1] [nM] | IC50, IL-31-induced STAT3 phosphorylation in NHK, Exp 9 [1] [nM] | Relative potency loss (KD) [4] | IC50, IL-31-induced STAT3 phosphorylation in NHK, Exp 6 [1] [nM] | IC50, IL-31-induced STAT3 phosphorylation in NHK, Exp 7 [1] [nM] | Relative potency loss (kd) [4] |
| --- | --- | --- | --- | --- | --- | --- | --- | --- | --- | --- | --- | --- | --- |
| B1 | 6.74 | 3.44 | 1.9 | 5.4e-05 | 28000 | 2.5 | 4.1 | – | – | – | – | – | – |
| B2 | – | – | 0.68 | 7e-05 | 100000 | 5.8 | 9.3 | 7.84 | 6.93 | ~0.4 x to parent | – | – | – |
| B3 | – | – | – | – | – | 4 | 6 | – | – | – | – | – | – |
| B4 | – | – | 186 | 0.015 | 88000 | – | – | – | – | ~85 x to parent | 68.8 | 224 | ~245 x to parent |
| B5 | – | – | 1.4 | 9.7e-05 | 69000 | 3.5 | 4.8 | – | – | – | – | – | – |
| B6 | – | – | 1.4 | 9e-05 | 65000 | 7.6 | 8.6 | – | – | ~0.6 x to parent | – | – | ~1.5 x to parent |
| B7 | – | – | 12.5 | 0.00073 | 59000 | – | – | – | – | ~5.5 x to parent | 71.9 | 242 | ~12 x to parent |
| B8 | – | – | 1.7 | 0.00011 | 67000 | 13.2 | 14 | – | – | – | – | – | ~2 x to parent |
| B9 | – | – | 1.46 | 7.6e-05 | 52000 | 11.6 | 22.8 | – | – | – | – | – | – |
| B10 | 7.8 | 8.82 | 1.9 | 5.7e-05 | 33000 | 3.3 | 4.5 | 5.44 | 7.58 | – | 3.99 | 7.74 | – |
